Where no end group is shown, it is not given here. [ ]: non-standard residue; d: D form. Aib = CC(C)(N)C(=O)O
B1: Compound No. 23 (peptide)
peptide: H[Aib]HGTFTSDYSIYLEKQAAQEFVQWLLEGGPSSGAPPPS-NH2
modifications: not fully specified (residue 16); printed as H-Aib-HGTFTSDYSIYLE-K[(2S)-2-amino-6-[[(2S)-2-amino-6-[[(4S)-4-carboxy-4-[[4-[(19-carboxynonadecanoylamino)methyl]cyclohexanecarbonyl]amino]butanoyl]amino]hexanoyl]amino]hexanoyl]-QAAQEFVQWLLEGGPSSGAPPPS-NH2
B2: Compound No. 22 (peptide)
peptide: H[Aib]HGTFTSDYSIYLEKQAA[Aib]EFVQWLLEGGPSSGAPPPS-NH2
modifications: not fully specified (residue 16); printed as H-Aib-HGTFTSDYSIYLE-K[(2S)-2-amino-6-[[(2S)-2-amino-6-[[(4S)-4-carboxy-4-(19-carboxynonadecanoylamino)butanoyl]amino]hexanoyl]amino]hexanoyl]-QAA-Aib-EFVQWLLEGGPSSGAPPPS-NH2
B3: Compound No. 34 (peptide)
peptide: H[Aib]HGTFTSDYSIYLEKKAA[Aib]EFVQWLLEGGPSSGAPPPS-NH2
modifications: not fully specified (residue 16); printed as H-Aib-HGTFTSDYSIYLE-K[2-[2-[2-[[2-[2-[2-[[(4S)-4-carboxy-4-(19-carboxynonadecanoylamino)butanoyl]amino]ethoxy]ethoxy]acetyl]amino]ethoxy]ethoxy]acetyl]-KAA-Aib-EFVQWLLEGGPSSGAPPPS-NH2
B4: Compound No. 31 (peptide)
peptide: H[Aib]HGTFTSDYSYYLEKKAA[Aib]EFVQWLLEGGPSSGAPPPS-NH2
modifications: not fully specified (residue 16); printed as H-Aib-HGTFTSDYSYYLE-K[(2S)-2-amino-6-[[(2S)-2-amino-6-[[(4S)-4-carboxy-4-(19-carboxynonadecanoylamino)butanoyl]amino]hexanoyl]amino]hexanoyl]-KAA-Aib-EFVQWLLEGGPSSGAPPPS-NH2
B5: Compound No. 27 (peptide)
peptide: H[Aib]HGTFTSDYSIYLEKQAAEEFVQWLLEGGPSSGAPPPS-NH2
modifications: not fully specified (residue 16); printed as H-Aib-HGTFTSDYSIYLE-K[(2S)-2-amino-6-[[(2S)-2-amino-6-[[(4S)-4-carboxy-4-(19-carboxynonadecanoylamino)butanoyl]amino]hexanoyl]amino]hexanoyl]-QAAEEFVQWLLEGGPSSGAPPPS-NH2
B6: Compound No. 26 (peptide)
peptide: H[Aib]HGTFTSDYSYYLEKQAA[Aib]EFVQWLLEGGPSSGAPPPS-NH2
modifications: not fully specified (residue 16); printed as H-Aib-HGTFTSDYSYYLE-K[(2S)-2-amino-6-[[(2S)-2-amino-6-[[(4S)-4-carboxy-4-(19-carboxynonadecanoylamino)butanoyl]amino]hexanoyl]amino]hexanoyl]-QAA-Aib-EFVQWLLEGGPSSGAPPPS-NH2
B7: Compound No. 32 (peptide)
peptide: H[Aib]HGTFTSDYSYYLEKQAA[Aib]EFVQWLLEGGPSSGAPPPS-NH2
modifications: not fully specified (residue 16); printed as H-Aib-HGTFTSDYSYYLE-K[(2S)-2-amino-6-[[(2S)-2-amino-6-[[(4S)-4-carboxy-4-(17-carboxyheptadecanoylamino)butanoyl]amino]hexanoyl]amino]hexanoyl]-QAA-Aib-EFVQWLLEGGPSSGAPPPS-NH2
B8: Compound No. 36 (peptide)
peptide: H[Aib]HGTFTSDYSKYLEKQAA[Aib]EFVQWLLEGGPSSGAPPPS-NH2
modifications: not fully specified (residue 16); printed as H-Aib-HGTFTSDYSKYLE-K[(2S)-2-amino-6-[[(2S)-2-amino-6-[[(4S)-4-carboxy-4-(19-carboxynonadecanoylamino)butanoyl]amino]hexanoyl]amino]hexanoyl]-QAA-Aib-EFVQWLLEGGPSSGAPPPS-NH2
B9: Compound No. 35 (peptide)
peptide: H[Aib]HGTFTSDYSIYLEKQKA[Aib]EFVQWLLEGGPSSGAPPPS-NH2
modifications: not fully specified (residue 16); printed as H-Aib-HGTFTSDYSIYLE-K[(2S)-2-amino-6-[[(2S)-2-amino-6-[[(4S)-4-carboxy-4-(19-carboxynonadecanoylamino)butanoyl]amino]hexanoyl]amino]hexanoyl]-QKA-Aib-EFVQWLLEGGPSSGAPPPS-NH2
B10: Compound No. 19 (peptide)
peptide: H[Aib]QGTFTSDYSIYLEKQAA[Aib]EFVQWLLEGGPSSGAPPPS-NH2
modifications: not fully specified (residue 16); printed as H-Aib-QGTFTSDYSIYLE-K[(2S)-2-amino-6-[[(2S)-2-amino-6-[[(4S)-4-carboxy-4-(19-carboxynonadecanoylamino)butanoyl]amino]hexanoyl]amino]hexanoyl]-QAA-Aib-EFVQWLLEGGPSSGAPPPS-NH2
B11: Compound No. 29 (peptide)
peptide: H[Aib]HGTFTSDYSYYLEKQYA[Aib]EFVQWLLEGGPSSGAPPPS-NH2
modifications: not fully specified (residue 16); printed as H-Aib-HGTFTSDYSYYLE-K[(2S)-2-amino-6-[[(2S)-2-amino-6-[[(4S)-4-carboxy-4-(19-carboxynonadecanoylamino)butanoyl]amino]hexanoyl]amino]hexanoyl]-QYA-Aib-EFVQWLLEGGPSSGAPPPS-NH2
B12: Compound No. 25 (peptide)
peptide: H[Aib]HGTFTSDYSYYLEKQAA[Aib]EFVQWLLEGGPSSGAPPPS-NH2
modifications: not fully specified (residue 16); printed as H-Aib-HGTFTSDYSYYLE-K[(2S)-2-amino-6-[[(2S)-2-amino-6-[[(4S)-4-carboxy-4-[[4-[(19-carboxynonadecanoylamino)methyl]cyclohexanecarbonyl]amino]butanoyl]amino]hexanoyl]amino]hexanoyl]-QAA-Aib-EFVQWLLEGGPSSGAPPPS-NH2
B13: Compound No. 20 (peptide)
peptide: Y[Aib]QGTFTSDYSIYLEKQAAQEFVQWLLEGGPSSGAPPPS-NH2
modifications: not fully specified (residue 16); printed as Y-Aib-QGTFTSDYSIYLE-K[2-[2-[2-[[2-[2-[2-[[(4S)-4-carboxy-4-[[4-[(19-carboxynonadecanoylamino)methyl]cyclohexanecarbonyl]amino]butanoyl]amino]ethoxy]ethoxy]acetyl]amino]ethoxy]ethoxy]acetyl]-QAAQEFVQWLLEGGPSSGAPPPS-NH2
B14: Compound No. 28 (peptide)
peptide: H[Aib]HGTFTSDYSIYLDKQAA[Aib]EFVQWLLEGGPSSGAPPPS-NH2
modifications: not fully specified (residue 16); printed as H-Aib-HGTFTSDYSIYLD-K[(2S)-2-amino-6-[[(2S)-2-amino-6-[[(4S)-4-carboxy-4-(19-carboxynonadecanoylamino)butanoyl]amino]hexanoyl]amino]hexanoyl]-QAA-Aib-EFVQWLLEGGPSSGAPPPS-NH2
B15: Compound No. 24 (peptide)
peptide: H[Aib]HGTFTSDYSIYLEKQYA[Aib]EFVQWLLEGGPSSGAPPPS-NH2
modifications: not fully specified (residue 16); printed as H-Aib-HGTFTSDYSIYLE-K[(2S)-2-amino-6-[[(2S)-2-amino-6-[[(4S)-4-carboxy-4-(19-carboxynonadecanoylamino)butanoyl]amino]hexanoyl]amino]hexanoyl]-QYA-Aib-EFVQWLLEGGPSSGAPPPS-NH2

The binders below were run against human glucagon receptor (human, UniProt P47871 26-477) (assay: cell-based or functional assay).
Chain of human glucagon receptor (P47871 26-477): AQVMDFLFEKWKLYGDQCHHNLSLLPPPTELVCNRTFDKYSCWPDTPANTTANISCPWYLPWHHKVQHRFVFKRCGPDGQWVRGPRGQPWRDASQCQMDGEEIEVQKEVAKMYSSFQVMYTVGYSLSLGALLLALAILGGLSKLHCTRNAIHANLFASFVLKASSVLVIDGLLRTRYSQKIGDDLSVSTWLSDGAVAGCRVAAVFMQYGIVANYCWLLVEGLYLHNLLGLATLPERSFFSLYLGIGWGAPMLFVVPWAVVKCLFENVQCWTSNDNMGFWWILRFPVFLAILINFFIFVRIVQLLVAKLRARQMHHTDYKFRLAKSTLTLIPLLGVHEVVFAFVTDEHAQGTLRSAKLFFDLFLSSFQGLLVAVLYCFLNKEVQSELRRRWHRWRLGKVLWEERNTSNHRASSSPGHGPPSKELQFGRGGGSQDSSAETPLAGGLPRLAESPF

Binder	hGcgR CRE Luc EC50 (pM)
B1	18.3
B2	48.7
B3	24.7
B4	7.7
B5	55
B6	13.6
B7	10.3
B8	11.4
B9	5
B10	357
B11	9.6
B12	25.2
B13	147
B14	16.7
B15	13.1

Each binder was assayed against human glucagon-like peptide 1 receptor (human, UniProt P43220 24-463) (assay: cell-based or functional assay).

Binder	hGLP-1R CRE Luc EC50 (pM)
B1	2
B2	2
B3	2.6
B4	3
B5	0.8
B6	3.1
B7	1.6
B8	1.8
B9	5.2
B10	1.7
B11	5.8
B12	4.6
B13	5.1
B14	4.5
B15	6.8

These binders were tested against T1, human glucose-dependent insulinotropic polypeptide receptor (human, UniProt P48546 22-466) (assay: cell-based or functional assay).
T1 sequence (looked up): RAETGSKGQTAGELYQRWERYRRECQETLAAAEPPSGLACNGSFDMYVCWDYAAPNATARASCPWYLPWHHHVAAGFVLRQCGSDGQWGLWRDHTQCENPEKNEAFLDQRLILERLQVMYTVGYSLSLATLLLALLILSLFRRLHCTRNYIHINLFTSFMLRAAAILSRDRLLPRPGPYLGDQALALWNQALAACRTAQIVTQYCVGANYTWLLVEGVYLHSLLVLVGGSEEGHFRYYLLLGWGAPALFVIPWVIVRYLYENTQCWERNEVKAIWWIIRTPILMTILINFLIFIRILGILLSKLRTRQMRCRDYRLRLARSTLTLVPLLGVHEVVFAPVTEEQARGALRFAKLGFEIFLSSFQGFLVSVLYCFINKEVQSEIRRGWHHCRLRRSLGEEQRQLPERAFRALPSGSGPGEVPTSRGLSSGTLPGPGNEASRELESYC

Binder	hGIPR CRE Luc EC50 (pM)
B1	5.1
B2	7.1
B3	8.7
B4	9
B5	2.5
B6	6.5
B7	3.5
B8	9.3
B9	13.9
B10	55
B11	7.2
B12	6.9
B13	8.1
B14	7.7
B15	7.7

From patent US20230391845A1, “GLP-1, GIP AND GLUCAGON RECEPTOR TRIPLE AGONISTS” (priority 2020, published 2023)
